{"source": "paper PMC12447786", "molecular_target": "Cys SARS2 Nsp1, fluorescein-labelled (SARS-CoV-2) (UniProt P0DTD1)", "experiment": "fluorescence polarisation", "data": [{"substance": "40S ribosomal subunit purified from rabbit reticulocytes (complex)", "values": [{"measurement": "Kd", "value": 27, "unit": "nM"}]}]}
